From patent publication US12337027B2, “Methods and compositions relating to lung repair” (THE CHILDREN'S MEDICAL CENTER CORPORATION, priority 2018, dated 2025)
“Also recorded” adds a separate entry of the source.

B1: sFlt1: soluble variant of the VEGF receptor encoded by the Flt1 gene (protein, listed as Homo sapiens)
chain: MVSYWDTGVLLCALLSCLLLTGSSSGSKLKDPELSLKGTQHIMQAGQTLHLQCRGEAAHKWSLPEMVSKESERLSITKSACGRNGKQFCSTLTLNTAQANHTGFYSCKYLAVPTSKKKETESAIYIFISDTGRPFVEMYSEIPEIIHMTEGRELVIPCRVTSPNITVTLKKFPLDTLIPDGKRIIWDSRKGFIISNATYKEIGLLTCEATVNGHLYKTNYLTHRQTNTIIDVQISTPRPVKLLRGHTLVLNCTATTPLNTRVQMTWSYPDEKNKRASVRRRIDQSNSHANIFYSVLTIDKMQNKDKGLYTCRVRSGPSFKSVNTSVHIYDKAFITVKHRKQQVLETVAGKRSYRLSMKVKAFPSPEVVWLKDGLPATEKSARYLTRGYSLIIKDVTEEDAGNYTILLSIKQSNVFKNLTATLIVNVKPQIYEKAVSSFPDPALYPLGSRQILTCTAYGIPQPTIKWFWHPCNHNHSEARCDFCSNNEESFILDADSNMGNRIESITQRMAIIEGKNKMASTLVVADSRISGIYICIASNKVGTVGRNISFYITDVPNGFHVNLEKMPTEGEDLKLSCTVNKFLYRDVTWILLRTVNNRTMHYSISKQKMAITKEHSITLNLTIMNVSLQDSGTYACRARNVYTGEEILQKKEITIRGEHCNKKAVFSRISKFKSTRNDCTTQSNVKH

How the values were obtained:
mice = experiment: Exercise tolerance tests; type: in vivo
[1] = test system: C57B16 mice following left pneumonectomy; experiment: Compensatory lung growth after left pneumonectomy (lung volume by water displacement); type: in vivo; conditions: for lung growth: compensatory lung growth after pneumonectomy
Procedure: (§1) C57B16 mice were randomized to receive daily intraperitoneal injection of either saline or soluble fms-like tyrosine kinase 1 (sFlt1) at a dose of 20 mcg/kg following left pneumonectomy. On post-operative day 4, mice underwent pulmonary function studies and were subsequently euthanized for lung volume measurement. Lung volume was determined by water displacement method. […] This therapy can potentially improve lung growth and pulmonary functions in patients suffering from severe pulmonary hypoplasia.
(§2) sFlt1 was administered to mice according to the experimental design depicted in FIG. 6. […] The dose response to sFlt1 was investigated (FIG. 8) and, in mice, 20 mcg/kg sFlt1 was the optimal dosing regimen (FIG. 9).

liver and spleen = test system: liver and spleen; design: species or system mice; conditions: mouse, in vivo
Procedure: LW/BW: liver weight/body weight, SW/BW: spleen weight/body weight.
as §1

[2] = test system: mice after 70% partial hepatectomy; experiment: Liver regeneration after 70% partial hepatectomy; type: in vivo; conditions: 10, 20, or 50 ug/kg daily intraperitoneal vs saline, POD 4
Procedure: Mice underwent 70% partial hepatectomy and were randomized to receive saline (control) or one of 3 doses of Flt1 (10, 20, or 50 ug/kg) via intraperitoneal injection. Treatment was performed daily and mice were euthanized on post-operative day (POD) 4 for organ harvest. Liver samples were weighed and normalized against body weight.

HIF-2α = HIF-2α levels after sFlt1 administration (incl. immunohistochemistry); type: in vivo, mice; conditions: FIG. 11, 12
Excerpt: FIG. 12 depicts immunohistochemical measurements of HIF-2α levels.

VEGF = VEGF levels after sFlt1 administration; type: in vivo, mice; conditions: FIG. 11
[3] = test system: C57B16 mice following left pneumonectomy; experiment: Pulmonary function studies after left pneumonectomy; type: in vivo
Procedure: as §1, §2

[4] = sFlt1 20 mcg/kg daily intraperitoneal vs saline, post-operative day 4

Row | Molecule | effect of HIF-2α inhibition on sFlt1 effect on exercise tolerance (mice; PT-2385 given with sFlt1, FIG. 16, 17) | effect of HIF-2α inhibition on sFlt1-induced lung growth ([1]; PT-2385 given with sFlt1, FIG. 15) | baseline activity in exercise tolerance tests (mice; FIG. 16) | organ mass of liver (LW/BW: liver weight/body weight) (liver and spleen) | organ mass of spleen (SW/BW: spleen weight/body weight) (liver and spleen) | liver weight normalized against body weight [2] | lung growth [1] | lung growth ([1]; listed as soluble VEGF receptor) | optimal dosing regimen (dose response) ([1]; in mice, FIG. 9) | lung volume (LV/BW: lung volume/body weight) [1, 4] | levels of HIF-2α (HIF-2α) | levels of VEGF (VEGF) | inspiratory capacity (IC/BW) [3, 4] | pulmonary compliance [3, 4] | pulmonary elastance [3, 4] | pulmonary mechanics ([3]; sFlt1 at 20 mcg/kg, FIG. 10)
1 | CS(=O)(=O)c1ccc(Oc2cc(F)cc(C#N)c2)c2c1[C@H](O)C(F)(F)C2 [PT-2385, reference compound] | blunt the effects of sFlt1 | blunt the effects of sFlt1 | – | – | – | – | – | – | – | – | – | – | – | – | – | –
2 | B1 | – | – | increased baseline activity | does not change | does not change | no difference in liver weight | increases lung growth; also recorded: accelerated lung growth | accelerated compensatory lung growth | 0.02 mg/kg | significantly higher lung volume; also recorded: increases lung volume | unexpectedly increases | unexpectedly increases | significantly higher; also recorded: improve; also recorded: increases inspiratory capacity | improves | improves | improved pulmonary mechanics
